Results published in US20260258115A1 (MAPP BIOPHARMACEUTICAL, published 2026).

Molecular target: RSV F on RSV-A2 virus (Respiratory syncytial virus, RSV-A2, UniProt P03420 26-574)
Experiment: cell-based or functional assay

Row | Binder | Neutralization IC50 (RSV subtype A)
1 | ADI-41571 (antibody, V domains shown) VH: EVQLLESGGGLVKPGGSLRLSCEASGFPFNSYHMNWIRQSPGKGLEWVSYITGGSSFSNYADSVKGRFTISRDNAKNSLYLQMNSLRAEDTAVYYCARTTLDCTSTSCHYRFDYWGQGTLVTVSS VL: QSVLTQPPSVSGAPGQRITISCNGSNSNIGAGYDVHWYQQLPGKAPKLLIYSNNNRPSGVPDRFSGSKSGTSASLAITGLQGEDEADYYCQSHDTRLSGNVVFGGGTKLTVL | 0.0315 µg/mL
2 | ADI-41568 (antibody, V domains shown) VH: QVQLQQWGARLLKPSETLSLTCAVYGGSFSGYYWSWIRQSPGKGLEWIGEINHSGSTNYNPSLKSRVTISRDTSKKQFSLKVSSVTAADTAVYYCARDPPIRCNGDSCKSDQYRYGMDVWGQGTTVTVSS VL: QPGLTQPPSVSVSPGQTARITCSGDALPKQYAYWYQQKPGQAPVLVIHKDNERPSGIPERFSGSSSGTTVTLTISGVQAEDEADYYCQSADTSGSYRLFGGGTKLTVL | > 25 µg/mL
3 | ADI-41810 (antibody, V domains shown) VH: QVQLVQSGGGVVQPGRSLRLSCAASGFNFHNYAMHWVRQAPGKGLEWVAVISYDGGNKHYADSVKGRFTISRDNSKNTLYLQMNSLRPDDTAVYYCARGHSDWRGDYFDFWGQGTLVTVSS VL: DIQLTQSPATLSVSPGERAILSCRASQNVGTNLAWYQQKPGQAPRLLIYDASTRATGIPARFSGSGAGTDFTLTISGLQSEDFAVYYCQQYINWPPYTFGQGTKLEIK | > 25 µg/mL
4 | ADI-41772 (antibody, V domains shown) VH: EVQLLESGGGLVEPGTSLRLSCEASGFTFSDYYMSWIRQAPGKGPEWVADISSRGVVTYYADSVKGRFTISRDNAKNSLYLQLNSLGAEDTAVYYCARLREVTYIMPTIDYFDYWGQGTLVTVSS VL: SYELTQPPSVSVSPGQTARITCSGDAFVKKYAYWYHQKSGQAPVVVIYEDTKRPSGIPERFSGSSSGTTATLTISGAQVEDEGDYYCYSRDFSGDHGVFGGGTKLTVL | 0.04 µg/mL
5 | ADI-36675 (antibody, V domains shown) VH: EVQLVESGGGLVQPGGSLRLSCAASGFTFNRFAMSWVRQAPGKGLEWVSGISGSGGSTLYADSVKGRFTISRDNSKNTLYLQINSLRVEDTAVYYCASRSSYDDVWNGYVDWDWGFDFYYYGMDVWGQGTTVTVSS VL: QAVVTQEPSMSAAPGQKVTISCSGGDSNIRNNYVFWYQQLPGTAPKLLIYDNTKRPSGIPGRFSGSKSGASATLDITGLQTGDEADYYCGTWDSSLSALVFGGGTQLTVL | 0.006 µg/mL
6 | ADI-41595 (antibody, V domains shown) VH: QVQLVQSGGGVVQPGGSLRLSCAASGFTFSDYGMHWVRQAPGKGLEWVAVISDGGSNQYSADSVRGRFTISRDNSKNTLYLQMNSLRPEDTAVYYCAKARIAARAIFDYWGQGTLVTVSS VL: DIQLTQSPSSLSASVGERITITCQASRDVRIYLNWYQHKPGKAPKLLIYDASNLETGVPSRYSGSGSGTDFTFTISSLQPEDIATYFCQQYDLLPPTFGVGTKVEIK | 0.0475 µg/mL
7 | ADI-41594 (antibody, V domains shown) VH: EVQLVESGGGLVKPGGSLRLSCAASGFSFSSYYMNWVRQAPGKGLEWVSSISPSSSYTNYADSVKGRFTISRDNAKDSLYLQMNSLRAEDTAVYYCARDGLLGITIFGVVQDYWGQGTLVTVSS VL: QSVVTQPPSVSGAPGQRVTISCTGSSSNIGAGYDVHWYQQLPGTAPKLLIYGNTNRPSGVPDRFSASKSGTSASLAITGLQAEDEADYYCQSYDSSLSVVFGGGTKLTVL | 0.0406 µg/mL
8 | ADI-41783 (antibody, V domains shown) VH: QVQLVQSGDEVKKPGASVKVSCKSSGYTFTHFGVSWVRQAPGQGLEWMGWISGYNGNTNYAQKLQGRVTMTTDTSTTTAYMELTSLRSDDTAVYYCARDSPAGTVTLDFWGQGTTVTVSS VL: not shown | 0.25 µg/mL
9 | ADI-41788 (antibody, V domains shown) VH: QVQLVQSGAEVKKPGASVKVSCQASGYTLTTYDINWVRQAPGQGLEWMGWMNANSGNTGYAQKFQGRVTMTRNISISTAYMELSSLGPEDTAVYYCARGFYKWNDWSFDYWGQGTLVTVSS VL: QSVLTQPPSVSVAPGQTARITCGGNNIGSKSVHWYQQKPGQAPVLVVYDDSDRPSGIPERFSGSNSGNTAPLTISRVEAGDEADYYCQVWDGDSAHHAVFGGGTQLTVL | 0.47 µg/mL
10 | ADI-41800 (antibody, V domains shown) VH: QVQLVQSGAEVKKPGASVKVSCKASGYTFTDYYMHWVRQAPGQGLEWLAWINPYTGGTNYAQKFQGRVTLTRDTSVSTTYMEVTRLRSDDTAVYYCARGESFHHWGQGTLVTVSS VL: QSALTQPASVSGSPGQSITISCTGTSSDIGGYDYVSWYQQHPGKVPKLMIYEVSTRPSGVSIRFSGSKSGNTASLTISGLQAEDEADYYCSSYTRSTITSVVFGGGTKLTVL | > 25 µg/mL
11 | ADI-41563 (antibody, V domains shown) VH: QVQLVESGPGLVKPSETLSLTCTVSDDSITNNFWTWIRQPPGKGLEWIGYIYYSGSTNYNPSLKSRITMSVDLSKNQFSLKLSSVTAADTAVYYCARLTSGGVDYWGQGTLVTVSS VL: QSVLTQPPSLSGAPGQRVTISCTGSSSNIGADYHVHWYQQLPGTAPKLLIYQNTNRPSGVPDRFSASKSGTSVSLAITGLQAEDEADYYCQSYDSSLSAWVFGGGTKLTVL | 0.0323 µg/mL
12 | ADI-41584 (antibody, V domains shown) VH: QVQLVESGAEVKKPGASVKVSCKASGYTFTDYYIHWVRQAPGQGLEWVGRINPNSGYINYAQKFQGRLTMTRDTSISTAYLELSSLRSDDTAVYYCTRLPLLEPLNFFDYWGQGTLVTVSS VL: QSVVTQPPSVSGAPGQRVTISCTGSSSNIGAGYDVHWYQQLPGTAPKVLIYGNNNRPSGVPDRFSGSKSGTSASLAITGLQAEDEADYYCQSFDSSLSSSYVFGTGTKLTVL | > 25 µg/mL
13 | ADI-41589 (antibody, V domains shown) VH: EVQLLESGGGLVQPGGSLRLSCAASGFTFNFFALTWVRQAPGKGLEWVSAISGSGESTYYADSVKGRFTISRDNSKNTLYLQMNSLRAEDTAVYYCAKFARSGDYASFFDYWGQGTLVTVSS VL: not shown | > 25 µg/mL
14 | ADI-41812 (antibody, V domains shown) VH: EVQLVESGGGLVKPGGSLRLSCAASGFTFSSYSMNWVRQAPGKGLEWVSSISAGSSYTDYAESVKGRFTISRDNAKNSLYLKMNSLRAEDTAVYYCARDPGYCSSNSCTVAMDVWGQGTTVTVSS VL: SYELTQPPSVSGAPGQRVTISCTGSSSNIGAGYDVHWYQQLPGTAPKLLIYGNNNRPSGVPDRFSGSKSGTSASLAITGLQAEDEADYYCQSYDRTLVIFGGGTKLTVL | 0.17 µg/mL
15 | ADI-41792 (antibody, V domains shown) VH: QVQLVQSGGGLVKHGGSLRLSCAASGFTFSSYSMNWVRQAPGKGLEWASSISSSSSYIYYADSVKGRFTISRDNAKNSLYLQMNSLRAEDTAVYYCARTEYSSSSPIFDYWGQGTLVTVSS VL: QSVLTQPPSVSGAPGQRVTISCTGSSSNIGAGYDVHWYQQLPGTAPKLLTYGNSNRPSGVPDRFSGSKSGTSASLAITGLQAEDEADYYCQSYDSSLSGSVFGGGTKVTVL | > 25 µg/mL
16 | ADI-41585 (antibody, V domains shown) VH: EVQLLESGGGLVKPGGSLRLSCAASGFTFADYYMSWIRQAPGKGLEWVSYISGGSSFTNYADSVKGRFTISRDNAKNSLYLQMNSLRADDTAVYYCARGISPALGGGEYFQDWGQGTLVTVSS VL: QPVLTQPPSVSGAPGQRVTISCTGSSSNIGAGYDVHWYQHLPGTAPKLLIYGNSNRPSGVPDRFSGSKSSTSASLAITGLQAEDEADYYCQSYDSSLGGYVFGTGTKVTVL | 0.0641 µg/mL

Molecular target: RSV fusion glycoprotein (RSV F) on RSV-A2 virus (respiratory syncytial virus, UniProt P03420 26-574)
Experiment: cell-based or functional assay

Row | Binder | Neutralization IC50 (RSV subtype A)
17 | ADI-41433 (antibody, V domains shown) VH: EVQLLESGGGAVQPGRFLRLSCAASGFTFRSYGMHWVRQAPGKGLEWVAVISYDGSDKYYADSVKGRFTISRDNSKNTLFLLMNGLRAEDAAVYYCAKDIASAGTLRGSDVWGQGTMVTVSS VL: QPVLTQPRSVSGSPGQSVTISCTGTSSDVGGFNYVSWYQQHPGKAPKLMIYDVRVRPSGVPDRFSGSKSGNTASLTISGLQGEDEADYYCCSYTVTYTLVFGGGTKLTVL | > 25 µg/mL
18 | ADI-41441 (antibody, V domains shown) VH: EVQLVQSGPGLVKPSETLSLTCSVSGASISRYHYYWGWIRQSPGKGLEWIGTIYYSGTTYYNPSLESRVTISADTSKNQVSLKLTSVTAADTAVYYCARGSGDTALDFSFEYWGQGALVTVSS VL: DIQLTQSPSFLSASVGDRITITCRASQGISNSLAWYQQKPGKAPKLLIYAASTLQFAVPSRFSGSGSGTEFTLTISSLQPEDFATYYCQQLDSYPLTFGGGTKLEIK | > 25 µg/mL
19 | ADI-41438 (antibody, V domains shown) VH: QVQLVQSGAEMRRPGSSVRLPCKASGYTFVSHTIVWVRQAPGQGLEWMGGIIPSLRTPNYAQNFQDRLTITADESARTAYMELSSLTSNDTAVYYCARETFQGGYYLDYWGQGTLVTVSS VL: EIVMTQSPGTLSVSPGDTAALSCRASQSVGRNLAWYQQKPGQAPRLLIFGASTRAADIPGRFSGSGSGTEFTLTITSLQSEDFAVYYCQQYNKWPPYTFGQGTKVEIK | > 25 µg/mL
20 | ADI-41437 (antibody, V domains shown) VH: QVQLVQSGGEVKKPGASVKVSCKASGYTFTHYGISWARQAPGQGIEWMGWINVHNGNTEYAQRFQGRVTMTTDTSTNTAYMEMTSLTSDDTAVYYCARDKIVVVVVPNYHGMDVWGQGTLVTVSS VL: not shown | > 25 µg/mL
21 | ADI-41439 (antibody, V domains shown) VH: QVQLVQSGTEVKNPGASVKVSCKASGYTFSNYGITWVRQAPGQGLEWMAWISAYNGNILYAQNVQGRVTMTTDTSTSTGYMELRSLRSDDTAVYYCARDAPAGTLTLLDYWGQGTLVTVSS VL: DIVMTQTPLSLPVTLGQPASISCRPSQSLVYSDGNTYLNWFQQRPGQSPRRLIYKVSNRDSGVPDRFSGSGSGTDFTLRISRVEAEDVGVYYCMQGSHWPYAFGQGTKVEIK | 0.34 µg/mL
22 | ADI-41424 (antibody, V domains shown) VH: QVQLVQSGAEVREPGASVKVSCKPSGYTFANYGISWVRQAPGQGLEWMAWISAYNGNTNYAPKVQGRVSVTTDSSTGIGYMELRSLRSDDTAVYYCVRDTPAIAGAATLDFWGQGTLVTVSS VL: DIVLTQSPLSLAVTPGQSASISCRSRQSHVFSDGNTYVSWFQQRPGRSPRRLIYRVSYRDSGVPDRFSGSGSGSDFTLRISRVEAEDVGVYYCMQGTHWPRTFGQGTKLEIK | 0.28 µg/mL
